According to paper PMC10777313:

Key:
mCD16-2 (mouse) = experiment: BLI; Fortebio Octet, 30°C; FcγRs loaded on NTA sensors at 5 μg/mL (2.5 nm); antibodies in solution, six 2-fold dilutions; 1× PBS, 0.1% BSA, 0.02% Tween 20; steady-state equilibrium analysis
mCD32b (mouse) = mCD32b (mouse) (UniProt P08101); experiment: as above
[1] = molecular target: hCD32b (FcγR IIb) (human) (UniProt P31994); experiment: BLI
[2] = molecular target: hCD16a (FcγR IIIa) (human) (UniProt P08637); experiment: BLI
[3] = molecular target: hCD16b (FcγR IIIb) (human) (UniProt O75015); experiment: BLI
UniProt O75015, sequence (O75015 17-200): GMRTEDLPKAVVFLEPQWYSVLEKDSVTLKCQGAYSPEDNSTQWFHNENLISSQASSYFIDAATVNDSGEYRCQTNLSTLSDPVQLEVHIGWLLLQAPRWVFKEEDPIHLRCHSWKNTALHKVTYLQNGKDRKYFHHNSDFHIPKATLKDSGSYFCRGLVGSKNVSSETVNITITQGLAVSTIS

UniProt P08101, sequence (P08101 30-330): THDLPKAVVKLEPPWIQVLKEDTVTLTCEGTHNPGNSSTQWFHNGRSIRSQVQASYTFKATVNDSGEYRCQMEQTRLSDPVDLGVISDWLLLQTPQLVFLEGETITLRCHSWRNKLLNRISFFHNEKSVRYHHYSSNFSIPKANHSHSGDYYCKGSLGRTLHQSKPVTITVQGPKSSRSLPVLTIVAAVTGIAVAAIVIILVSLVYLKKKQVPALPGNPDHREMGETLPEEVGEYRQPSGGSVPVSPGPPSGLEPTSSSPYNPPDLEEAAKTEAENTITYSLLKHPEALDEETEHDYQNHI
UniProt P08637, sequence (P08637 17-208): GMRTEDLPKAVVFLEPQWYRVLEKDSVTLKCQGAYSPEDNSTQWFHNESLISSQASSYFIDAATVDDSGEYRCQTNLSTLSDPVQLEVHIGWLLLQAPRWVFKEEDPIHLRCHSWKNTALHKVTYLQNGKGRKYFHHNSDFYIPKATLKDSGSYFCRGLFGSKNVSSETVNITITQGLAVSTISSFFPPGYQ
UniProt P31994, sequence (P31994 43-310): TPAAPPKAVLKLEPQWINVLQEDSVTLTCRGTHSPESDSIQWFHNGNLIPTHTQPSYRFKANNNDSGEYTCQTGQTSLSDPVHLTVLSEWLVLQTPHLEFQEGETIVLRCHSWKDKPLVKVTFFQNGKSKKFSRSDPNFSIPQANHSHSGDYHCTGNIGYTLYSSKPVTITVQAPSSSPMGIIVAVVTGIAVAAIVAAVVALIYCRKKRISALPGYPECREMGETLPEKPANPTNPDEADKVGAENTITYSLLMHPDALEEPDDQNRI

Row | Kd (mCD16-2 (mouse)) [nM] | Kd (mCD32b (mouse)) [nM] | Kd [1] [nM] | Kd [2] [nM] | Kd [3] [nM] | Substance
1 | 1100 | 2800 | – | – | – | Wild-type huE6F6 (huE6F6-wt) (antibody)
2 | – | – | 1100 | 805 | 2580 | Wild-type huE6F6 (huE6F6-wt) (from UniProt P01857)
